Target: PIK3R2/p85β (UniProt O00459)
Test: anti-Myc IP, PIK3R2 immunoblot
Conditions: reference: Myc-IRS4 wild type; sites Y779

binding against the reference: weaker
Substance: IRS4 (insulin receptor substrate 4) (from UniProt O14654) Myc-IRS4 Y779F

Reference: publication PMC9098222
